# B1: TPR t1 (parent)
# chain: GACCAAUCUGCCCUCAGAGCUCGAGAACAUCUUCGGAUGCAGAGGAGGCAGGCUUCGGUGGCGCGAUAGCGCCAACGUCCUCAACCUCCAAUGCAUCCCACCACAUGAUGAUGCCUGAAGAGCCUUGGUUUUUUG
# Variants of: B1
# Assay: polymerase ribozyme fitness, log enrichment relative to wild type (log ratio); higher = more active; in vitro selection for triplet polymerase activity
# Outline: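 Mutant libraries of both subunits of a heterodimeric triplet polymerase ribozyme were PCR-built, transcribed, and selected once in triplicate, with frozen incubation at −7 °C and capture of gel-excised extended constructs on streptavidin beads before RT-PCR. Illumina sequencing of input and output libraries was filtered to genotypes with ≥10 input reads and ≥1 read per output. Fitness is the logarithm of genotype enrichment over wild-type enrichment, using inverse-variance-weighted replicate averages. The logarithm is base 2.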
row,Variant,polymerase ribozyme fitness (log ratio)
1,G77C A83C C85U U109C C114G,-6.69
2,C73U A121U U133A,2.19
3,U78C A111U,-2.5
4,G77C C85A,-1.93
5,C73U G117A,0.149
6,U78G A95C,-0.597
7,C72A U112C,1.48
8,C73G C101A G120C,-0.681
9,A74G G120A,1.08
10,U78G C98U,-0.646
11,C72G G93C,-1.92
12,C73G U81G,-3.66
13,U78C A95G,-1.08
14,C73U A103C,-3.82
15,A74U C102U,-2.82
16,C73A C102G,-5.02
17,A74U G110A,-1.3
18,G77C G110U,-1.93
19,C72G U81A U130A,-1.44
20,C72U C73A A91U U131C U132C,-2.72
21,C72U C79A C115U,-3.58
22,C72U A84G G117C,-4.48
23,C72U C94A U125A,-1.59
24,C72G U116A,-3.49

row,Variant,polymerase ribozyme fitness (log ratio)
1,C73G G122U C123G,0.776
2,C73A C104U,0.181
3,C73A U96C,0.0129
4,C79A A91C,-3.69
5,C72U C86U,-0.347
6,C76G G77U,0.0405
7,C73U G110C,-3.31
8,C73U G110U,-1.17
9,C72U U78A,-1.19
10,U78C G113A A118G U134G G135U,-1.82
11,C79A A83G C115G C123A U131G,-4.48
12,A75U C76G C88G C89U A90G,-2.47
13,C73G U96G C102A,-3.86
14,G77C U92C G122A,-2.81
15,U78G U116A,-3
16,C73G A84U U112C,0.269
17,G77A A95G G120A,0.0766
18,C73A C101G A119U,-1.93
19,U78A U87G,-0.804
20,C73U C76U C97U U112A U129A,-1.35
21,C72U U116A G120U,-1.54
22,C72A U109C,-2.36
23,C72U C85U U109A A121G,-4.72
24,C72U C101U,-0.522

row,Variant,polymerase ribozyme fitness (log ratio)
1,U78A A95G,-0.764
2,C73A U87C,0.572
3,A74U C88G A118U,-1.31
4,C72U C79U U96A G113U,-4.45
5,C72U G107C U109A U130A,-5.31
6,C73A C101U G110U,-1.75
7,C73A C79G,-2.94
8,C73A U125A,-0.432
9,C72U A121C U134G,1.71
10,C73U A91U U96A U112A G120U,-3.6
11,A75U C76U,-1.57
12,C72U A74U U81C,-0.388
13,C73G C86U U109A,-6.23
14,A74U U78A C85U C114U,-4.72
15,C72U G110C,-4.19
16,A74G C80U,-1.69
17,C73U U112A,1.41
18,C73A C94G,-0.66
19,C73A C94A,-0.492
20,C73A G107C,-4.16
21,C73A C88U C114G A118U,-3.36
22,A75G U112A,1.59
23,C73U C85U U116G,-3.31
24,C73U C104U,0.0551

row,Variant,polymerase ribozyme fitness (log ratio)
1,U78A C114G,-2.43
2,G77C G122A U130A,-1.41
3,C73U C115G,-1.77
4,C72U C98A,-4.69
5,C72U C79G G113C A118U,-5.9
6,C73G U133A,-1.27
7,C72U U78G C115U U116C,-2.31
8,C76A G110A C115A,-2.95
9,U78C C97A,-4.81
10,C73U C97A U106C,-5.37
11,U78A G113C,-2.57
12,C72U C123U,0.155
13,C79A C82U C94A G113A G128U,-5.6
14,C72U G77A A111U G113A,-5.99
15,C73G C123A,0.232
16,C73G G93C,-2.05
17,A74C C79A U131G,-0.848
18,C73U G122A,-0.427
19,C73U U81G C82G C123A,0.626
20,A74G U112G U116A,-1.07
21,C73G G128A,-2.13
22,A74C C82U A95C,-0.152
23,U78C A84C,-0.194
24,C76A G120U,-0.741

row,Variant,polymerase ribozyme fitness (log ratio)
1,A74C C79A U125A,-1.75
2,U78A G117A G128C,-5.04
3,C72G G122A,-1
4,C72U C89A C104U U125G,-1.18
5,C72G A90U,-1.11
6,C72G U92A,-3.94
7,C72G U92G,-3.48
8,C73G G113C,-2.85
9,G77U G122A U130G,-0.666
10,C79A C99A,-6.57
11,G77U U78C U87G A121U U130G,2.02
12,U78G C102G,-4.94
13,A75U U81A G113C U130C,-3.89
14,A74G G113A,-1.8
15,C72G C123G,1.26
16,C72U A103C,-4.5
17,G77C U129A,-1.42
18,C73U A119U U126C,-0.929
19,C79A C115A G127C,-1.07
20,U78A G117C A121C,-5.24
21,C72U A95C C97U,-2.94
22,U78G G120A,0.634
23,A74U U112A G128A,-1.59
24,C72U A111U,-2.46

row,Variant,polymerase ribozyme fitness (log ratio)
1,C76G C99A U112A,-4.02
2,U78C C123A,0.196
3,C72U A108G,-1.96
4,G77U C94U C102A C115A,-2.01
5,A74C U133A,-0.0752
6,A75U A111C,0.255
7,U78A C123A,0.278
8,C76U G117C,-3.98
9,U78C U112A C114G,-0.26
10,A74C U96A G117C,-5.37
11,U78A C115U,-1.41
12,C72U U106C,-0.313
13,C73G C98A,-6.22
14,C73A C101U G122A U131C,-1.18
15,A74G U112A U126A,0.303
16,C72U C104A G120A G122U U131A,-1.54
17,C73G U116A,-3.66
18,C72G A119U C124G,1.57
19,C72G C124A,1.03
20,C72G C124G,1.51
21,U78C A83C C102U,-1.78
22,G77A C85A,-2.93
23,G77A U81A G128A,-2.44
24,A74C U106A G120U C124G,1.17

row,Variant,polymerase ribozyme fitness (log ratio)
1,C72U G77C C114U,-2.28
2,C76A C82G C88U G110C,-5.82
3,G77A C98U U126C U130C,-1.62
4,G77C C86A G117A,-3.88
5,C73U C114G,-1.76
6,G77C C89U G128C,-3.81
7,C72A U112C G127C,0.93
8,C73G C86A,-1.38
9,C73G C80A,-4.88
10,C72U U129A,-1.42
11,G77A U131A,0.113
12,A74U U87A C102U C104A,-2.53
13,U78C A83C,0.0151
14,U78C C94G A95G A118U,-0.801
15,U78A C88G C98U G135A,-2.63
16,A75G C94G,-1.19
17,A74G A83U U106C,-0.743
18,C76U C82A C88U,-1.25
19,C73A G120A,0.528
20,C73A G120U,0.347
21,C79A C82U,-0.745
22,C72U U78C C97A,-4.87
23,C73G C124A U130G,1.1

# From the RNAGym collection of RNA variant scans (doi:10.1073/pnas.2313332121)
